Laboratory results from publication PMC12152161 (2025).

Target: T1, His10 − MBP − KIF1C(714–809) (UniProt O43896 714-809)
T1 chain: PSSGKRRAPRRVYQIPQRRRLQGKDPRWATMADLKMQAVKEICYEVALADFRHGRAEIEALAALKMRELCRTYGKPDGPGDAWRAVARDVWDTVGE
Test: ITC

Row | Binder | Ka
1 | His10 − MBP − PTPN21(19–308) (domain or fragment) SKSCLVARIQLLNNEFVEFTLSVESTGQESLEAVAQRLELREVTYFSLWYYNKQNQRRWVDLEKPLKKQLDKYALEPTVYFGVVFYVPSVSQLQQEITRYQYYLQLKKDILEGSIPCTLEQAIQLAGLAVQADFGDFDQYESQDFLQKFALFPVGWLQDEKVLEEATQKVALLHQKYRGLTAPDAEMLYMQEVERMDGYGEESYPAKDSQGSDISIGACLEGIFVKHKNGRHPVVFRWHDIANMSHNKSFFALELANKEETIQFQTEDMETAKYIWRLCVARHKFYRLNQ | 194000 M⁻¹
2 | His10 − MBP−Hook3(553–624) (domain or fragment) EKLHEANNELQKKRAIIEDLEPRFNNSSLKIEELQEALRKKEEEMKQMEERYKKYLEKAKSVIRTLDPKQNQ | 631000 M⁻¹
